To fix the notation:
B1: TPR t1 (parent)
chain: GACCAAUCUGCCCUCAGAGCUCGAGAACAUCUUCGGAUGCAGAGGAGGCAGGCUUCGGUGGCGCGAUAGCGCCAACGUCCUCAACCUCCAAUGCAUCCCACCACAUGAUGAUGCCUGAAGAGCCUUGGUUUUUUG

The series covers variants of B1. As to the kind of experiment: polymerase ribozyme fitness, log enrichment relative to wild type (log ratio); higher = more active; in vitro selection for triplet polymerase activity. An outline of the steps: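 After PCR construction and transcription, each subunit's mutant library from a heterodimeric triplet polymerase ribozyme was annealed with a biotinylated primer, the partner subunit and triplets. Incubation was frozen, at −7 °C, and extended constructs were gel-excised, bound to streptavidin beads and amplified by RT-PCR, in one selection round done in triplicate. Fitness is the logarithm of a genotype's enrichment divided by that of the wild type, from inverse-variance-weighted replicate averages of Illumina-sequenced inputs and outputs. The base of the logarithm is 2, and genotypes needed ≥10 input reads and ≥1 read per output.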
With G63A A66U, the “polymerase ribozyme fitness (log ratio)” value is -2.44. In the case of G63A C82U C94U A95C C115U U132C it was -2.7. The same measure for C62U G122A: -0.839. In the case of C62U G122U it was 0.2; in that of G61U C86U G135U, -1.31; in that of C62A C85U, -0.762. Regarding C62A C85A, the “polymerase ribozyme fitness (log ratio)” value is -2.47. The same measure for C62G C79U G110A: -2.71; for G63A C124U: 0.738; for C62U G63U U78G: -3.96. In the case of C62A A75G it was -1.22; in that of G61U U96G, -0.881. In the case of C62U C97U C115G it was -3.22. On to C62G G63A, for which the “polymerase ribozyme fitness (log ratio)” value was -3.83. In the case of C62G G63U it was -7.04. The same measure for C62A U112C: 0.245. The same measure for C62A U112A: -0.111; for C62U C80G C124G: -5.66; for C62A U96G: -1.8. For the variant G63A C88A, the “polymerase ribozyme fitness (log ratio)” value was -1.42. The same measure for G61U C85G G127C: -2.41. In the case of G61U G113A, the “polymerase ribozyme fitness (log ratio)” value was -0.951. The same measure for G61U G63U: -4.98; for G61U G63C: -3.05; for C62U U78C C85A U92C C97A: -6.24. In the case of C62G C88G A91U U112A it was -5.1; in that of G63A G107U, -5.22.

With G61U C97G G122U, the “polymerase ribozyme fitness (log ratio)” value is -3.87.

As to G63A G93U, the “polymerase ribozyme fitness (log ratio)” value was -2.58.

Turning to G61U C85G C97U, the “polymerase ribozyme fitness (log ratio)” value was -3.66. The same measure for C62A U78C U112A U116A: -3.11; for G61U U87C C99U C115G: -4.63. The same measure for C62G G113A C114G A121U: -4.27; for C62U C101U: -0.317; for G63A G77U A105G: -4.78.

As to G61U U78C A83U, the “polymerase ribozyme fitness (log ratio)” value was -0.564. On to G61U G110U A111U, for which the “polymerase ribozyme fitness (log ratio)” value was -4.03. The same measure for C62A G69U: -3.2; for C62U U92C U116C A119G: 0.218; for G63A C123A: -0.259. In the case of G63A C88U G120A G122U it was -0.851; in that of G61U U112A U130A, 1.31; in that of C62U A121G U125C, -0.0117. In the case of C62U C124A it was 1.84; in that of C62U C99U, -3.59.

For C62G G71U C97A A119G, the “polymerase ribozyme fitness (log ratio)” value was -4.38. In the case of C62U C73U U81G A84C G113A it was -3.57; in that of C62U G117C, -3.31; in that of C62A U81C C82A C98U, -4.18.

For C62G C64U, the “polymerase ribozyme fitness (log ratio)” value is -3.51.

For C62G U130A, the “polymerase ribozyme fitness (log ratio)” value is -1.59. In the case of C62U A74G C88A it was -3.21; in that of G63A G120C, 0.337; in that of C62A U78C, -1.1. In the case of G61U U116C U130G it was -0.407; in that of C62G G135U, -2.31; in that of C62A G113A, -2.02. In the case of C62U U78G it was -0.0458. Turning to C62A C79A C115A G127A, the “polymerase ribozyme fitness (log ratio)” value was -3.94. The same measure for C62A U131C: -0.63. In the case of C62A U87A U92A U116C it was -6.88. In the case of C62A A66U C73U A95C C123U it was -5.94; in that of C62A A84G G117A, -5.26; in that of C62A U87A A90U A111C, -5.52. For the variant G63A C82U C85U A90U C98U A118U, the “polymerase ribozyme fitness (log ratio)” value is -5.21. In the case of G61U U129G U133A it was -2.01; in that of C62A A118U, -1.56.

For G61U C97G, the “polymerase ribozyme fitness (log ratio)” value is -4.15.

With C62U U87C C88G C114A, the “polymerase ribozyme fitness (log ratio)” value was -3.36. In the case of C62A G120U G122C it was -1.92; in that of C62U U78C A100U, -0.796. As for C62U A121U, the “polymerase ribozyme fitness (log ratio)” value came to 1.08. The same measure for C62U A121C: 1.11; for G63A C72U C101U: -1.24.

As for C62G U96A C123U, the “polymerase ribozyme fitness (log ratio)” value was -3.13. The same measure for G61U U81C C82U A121C: 0.807. The same measure for C62U C86U G117C U132A: -4.51; for C62U C86G G117A A119U: -0.588. G61U U106A: the “polymerase ribozyme fitness (log ratio)” value turned out to be 0.146. The same measure for G61U U106G: -0.849; for G61U C88G: -1.3. In the case of G61U C88A it was -1.18; in that of C62A G117C A118C U131C, -5.12. Consider C62U G120C, for which the “polymerase ribozyme fitness (log ratio)” value amounted to 0.344. As to G63A C64A U81G C115G, the “polymerase ribozyme fitness (log ratio)” value was -6.59. In the case of C62G G117A U131G it was -4.48; in that of C62U A74U G128C, -3; in that of C62A C94A, -2.2. In the case of C62A U87A, the “polymerase ribozyme fitness (log ratio)” value is -1.8.

As to G63A C89A U131G, the “polymerase ribozyme fitness (log ratio)” value was -3.23.

G61U U92G: the “polymerase ribozyme fitness (log ratio)” value is -2.97. The same measure for C62U G128U: -1.78.

C62U U130A: the “polymerase ribozyme fitness (log ratio)” value is -0.419. In the case of C62U C88A it was -0.404; in that of C62U G71C G120U A121C, 0.341. In the case of C62U U109C it was -4; in that of C62U U109A, -4.57. The same measure for G63A C86U: -0.411. Take G63A C86A: the “polymerase ribozyme fitness (log ratio)” value is -2.33. C62A G122A: the “polymerase ribozyme fitness (log ratio)” value is -1.85. In the case of C62A G122U it was 0.143. In the case of C62G G110A it was -3.33; in that of C62G G110U, -2.94. The same measure for G63A A83C C102U G113U: -7.43; for C62U C85G U87C: -2.53. G61U C85G: the “polymerase ribozyme fitness (log ratio)” value was -2.33. Consider C62A G110A U126G, for which the “polymerase ribozyme fitness (log ratio)” value was -3.4. The same measure for C62U C82U C124A: 1.29.

As for C62G C88U, the “polymerase ribozyme fitness (log ratio)” value is -1.37. The same measure for G61U C104A: -1.7. The same measure for C62U C115G: -2.51; for C62U C115A: 0.00277. In the case of C62G G69U it was -5.17; in that of G61U G120C U125A, 0.559; in that of C62G C85A C102U A121U C124U, -4.13. In the case of G63A A95U, the “polymerase ribozyme fitness (log ratio)” value was -0.563. In the case of G63A A95C, the “polymerase ribozyme fitness (log ratio)” value was -2.22. In the case of C62U U78C C101G A118G U133A it was -2.5; in that of G61U U78C, -0.574. In the case of G61U U78A it was 0.0643. In the case of C62A C85U A121G it was 0.356; in that of C62U G107A, -4.72. Consider C62U G107U, for which the “polymerase ribozyme fitness (log ratio)” value was -4.02. In the case of G61U U132A it was 0.196; in that of G63A C79U A91U, -3.61.

For the variant C62G G113U, the “polymerase ribozyme fitness (log ratio)” value is -4.24. In the case of G63A A84U U92G G117A it was -6.18; in that of G61U G107C, -4.98; in that of C62A U109C, -4.04. In the case of C62A U109G it was -6.74. The same measure for G63A C115A: -1.19; for G63A G93C G113U: -5.1; for C62U A103U: -4.85.

Take C62U A103G: the “polymerase ribozyme fitness (log ratio)” value was -5.08. The same measure for G61U U81G: -2.74; for C62A G93A: -2.07; for C62A G93C: -2.37.

For the variant C62U A74U U78C G120A, the “polymerase ribozyme fitness (log ratio)” value is -0.246. Turning to G61U U78C C88U U130G, the “polymerase ribozyme fitness (log ratio)” value was -0.822. For the variant C62G U116A, the “polymerase ribozyme fitness (log ratio)” value was -4.13. The same measure for G61U C89G A91U C124U: -0.422.

For C62U C85U U87A U92C C114U G117A, the “polymerase ribozyme fitness (log ratio)” value is -6.6. The same measure for G63A C88U C97U G113C: -4.04. G63A G110U: the “polymerase ribozyme fitness (log ratio)” value is -3.42.

Consider G63A G110C, for which the “polymerase ribozyme fitness (log ratio)” value is -5.57.

Consider G63A G110A, for which the “polymerase ribozyme fitness (log ratio)” value was -2.72.

Take G63A C79U A95U C101U: the “polymerase ribozyme fitness (log ratio)” value was -0.75.

In the case of C62A U106G A121G, the “polymerase ribozyme fitness (log ratio)” value was -0.77. Turning to C62G C102U G120U, the “polymerase ribozyme fitness (log ratio)” value was -5.14.

With C62U C64U C102A U126G, the “polymerase ribozyme fitness (log ratio)” value was -4.31. The same measure for C62G U78C C79G A111G: -3.51; for C62A C72G G120U U129G: -3.88; for G63A A111U G122A: -6.48.

Take G63A U78C C123A: the “polymerase ribozyme fitness (log ratio)” value was -0.604. The same measure for C62U C123A: 0.98; for C62U G113C: -2.79. For the variant C62U G113U, the “polymerase ribozyme fitness (log ratio)” value was -3.01. As to C62U G110A, the “polymerase ribozyme fitness (log ratio)” value was -1.23.

Turning to G63A C99A A121C, the “polymerase ribozyme fitness (log ratio)” value was -5.41. As for C62U A108C G117U C124A, the “polymerase ribozyme fitness (log ratio)” value is -6.3. In the case of G61U U78A G128C it was -2.72. In the case of G63A G127C it was -1.62; in that of G63A U109G, -4.41. The same measure for C62A C123G: 0.748; for C62A C123U: 0.181; for C62A C123A: -0.607. For G63A A68G, the “polymerase ribozyme fitness (log ratio)” value was -3.95.
